Key:
[1] = target: cynomolgus ICOS (cynomolgus); experiment: Biacore (SPR), cyno ICOS; format not described
human ICOS (human) = human ICOS (human) (UniProt Q9Y6W8); experiment: Biacore (SPR), human ICOS; format not described
Sequence of human ICOS (human) (Q9Y6W8 21-140 limits assumed): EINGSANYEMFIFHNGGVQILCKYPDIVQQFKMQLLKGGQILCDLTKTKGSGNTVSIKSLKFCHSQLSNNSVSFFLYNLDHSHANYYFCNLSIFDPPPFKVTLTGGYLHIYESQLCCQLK

Sequence of cynomolgus ICOS (cynomolgus) (A0A2K5 entry or part of it limits assumed): as the sequence (Q9Y6W8 21-140 limits assumed) above, with H81R counted along it

B1: murine anti-human ICOS mAb clone 314.8 (antibody, from another filing, V domains shown)
VH: QVQLQQPGTELMKPGASVKLSCKASGYTFTTYWMHWVKQRPGQGLEWIGEIDPSDSYVNYNQNFKGKATLTVDKSSSTAYIQLSSLTSEDSAVYFCARSPDYYGTSLAWFDYWGQGTLVTVST
VL: DIVMTQAAPSVPVTPGESVSISCRSSKSPLHSNGNIYLYWFLQRPGQSPQLLIYRMSNLASGVPDRFSGSGSGTTFTLKISRVEAEDVGVYYCMQHLEYPYTFGGGTKLEIK
Question: How did the Kd [1] turn out when B1 was run?
Answer: 9.3 nM

Question: What about the Kd (human ICOS (human)) of the same binder?
Answer: 17 nM
